Assay results published in patent US11370846B2, “Compositions and methods to regulate Renalase in the treatment of cancer” (Yale University, priority 2014, dated 2022).

What was measured:
Type in all cases: cell-based, human
STAT3 [1] = assay: STAT3 phosphorylation in Panc1 cells by western blot; conditions: addition of RNLS
Description: FIG. 27A through FIG. 27E are a series of images and charts showing the interaction between RNLS and STAT3, and the mechanistic model of inhibition by m28-RNLS. FIG. 27A is an image showing activation of STAT3 by RNLS in Panc1 cells; Panc1 cells in culture treated with either BSA or RNLS, and STAT3 phosphorylation assessed by western blot; p-Ser^727-STAT3: phosphorylation at serine 727, p-Y^705-STAT3: phosphorylation at tyrosine 705; representative study. FIG. 27B is a chart depicting the quantification of STAT3 phosphorylation with RNLS; signals normalized to total STAT3; n=3, *=P<0.05. […] FIG. 27D is a chart showing the quantification of STAT3 phosphorylation with m28-RNLS; signals normalized to GAPDH loading control; n=3, *=P<0.05. FIG. 27E depicts the proposed mechanistic model for antitumor activity of m28-RNLS.

STAT3 [2] = assay: STAT phosphorylation in HK-2 cells treated with RNLS
[3] = test system: melanoma cells (A375.S2, MeWo, SkMe15, and SkMe128); assay: Survival of serum-starved melanoma cells with rRNLS, WST-1; conditions: 30 ug/ml, 72 hrs, compared to BSA
Experimental: FIG. 18A and FIG. 18B are two charts showing that RNLS overexpression favors cancer cell survival.
For additional studies, cell viability was determined using WST-1 reagent (Roche Diagnostics, Indianapolis, Ind., USA) according to the manufacturers' instruction. Absorbances were read using a microplate reader (Power Waves XS, BioTek Instruments, Winooski, Vt., USA).

MiaPaCa2 cells = assay: FACS cell cycle analysis of MiaPaCa2 cells treated with rRNLS; conditions: 30 μg/ml, compared to BSA
Experimental: For cell cycle analysis, cultured cells were dissociated using 10 mM EDTA, fixed with ice-cold 70% ethanol, digested with RNAse A, and stained with propidium iodide. Propidium staining was detected using a BD FACSCalibur flow cytometer (BD Biosciences, San Jose, Calif., USA), and analyzed using CellQuest software.

B1: rRNLS: Recombinant human RNLS (renalase) (protein)
chain: ALLRRQTSGPLYLAVWDKAEDSGGRMTTACSPHNPQCTADLGAQYITCTPHYAKKHQRFYDELLAYGVLRPLSSPIEGMVMKEGDCNFVAPQGISSIIKHYLKESGAEVYFRHRVTQINLRDDKWEVSKQTGSPEQFDLIVLTMPVPEILQLQGDITTLISECQRQQLEAVSYSSRYALGLFYEAGTKIDVPWAGQYITSNPCIRFVSIDNKKRNIESSEIGPSLVIHTTVPFGVTYLEHSIEDVQELVFQQLENILPGLPQPIATKCQKWRHSQVTNAAANCPGQMTLHHKPFLACGGDGFTQSNFDGCITSALCVLEALKNYI
Q: B1 was tested. Which “phosphorylated STAT3 (p-Ser727-STAT3 and p-Y705-STAT3) in Panc1” value (STAT3 [1]) did it give?
A: rapid increase

Q: What about the “increase in STAT3 phosphorylation at serine 727 (p-Ser727-STAT3)” value (STAT3 [2]) of the same molecule?
A: 2 fold

Q: And the “increase in STAT3 phosphorylation at tyrosine 705 (p-Y705-STAT3)” value (STAT3 [2])?
A: 4 fold

Q: And the “survival of serum-starved melanoma cells” value [3]?
A: markedly increased the survival

Q: What about the cell cycle progression (MiaPaCa2 cells) of the same molecule?
A: no effect
